In patent US20260242735A1 (UNIVERSIT T BASEL, published 2026):

B1: Refmab #3 (antibody, V domains shown)
VH: QVQLVQSGAEVKKPGSSVKVSCKASGYTFTDYNMHWVRQAPGQGLEWIGYIYPYNGGTGYNQKFKSKATITADESTNTAYMELSSLRSEDTAVYYCARGRPAMDYWGQGTLVTVSS
VL: DIQMTQSPSSLSASVGDRVTITCRASESVDNYGISFMNWFQQKPGKAPKLLIYAASNQGSGVPSRFSGSGSGTDFTLTISSLQPDDFATYYCQQSKEVPWTFGQGTKVEIK
notes: The alanine scan used IgG or Fab
B2: Refmab #4 (antibody, V domains shown)
VH: QVQLVQSGAEVKKPGESVKVSCKASGYTFTNYGMNWVKQAPGQGLEWMGWINTYTGEPTYADKFQGRVTMTTDTSTSTAYMEIRNLGGDDTAVYYCARWSWSDGYYVYFDYWGQGTSVTVSS
VL: DIVMTQSPDSLTVSLGERTTINCKSSQSVLDSSTNKNSLAWYQQKPGQPPKLLLSWASTRESGIPDRFSGSGSGTDFTLTIDSPQPEDSATYYCQQSAHFPITFGQGTRLEIK
notes: as for B1

How the values were obtained:
Assay in all cases: alanine scan, flow cytometry, HEK293-T;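 note: antibody binding to each alanine-substituted CD33 mutant expressed transiently in HEK293-T, read as fluorescence minus background, mean of duplicates, relative to wild-type CD33 set as 100%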
[1] = molecular target: human CD33 V267A (human, UniProt P20138 18-364)
Method: (§1) An alanine scan on human CD33 was performed to the determine the residues on CD33 that are involved in binding to the antibodies investigated. […] Briefly, a mutation library of CD33 was created by high-throughput, site-directed mutagenesis. Each residue was individually mutated to alanine, with alanine codons mutated to serine. The mutant library was arrayed in 384-well microplates and transiently transfected into HEK293-T. Following transfection, cells were incubated with the indicated antibodies (IgG or Fab) at concentrations pre-determined using an independent immunofluorescence titration curve on wild type CD33. […] Binding of each antibody to each mutant clone was determined in duplicates. For each point, background fluorescence was subtracted from the raw data, which were then normalized to antibody reactivity with wild type CD33.
(§2) Critical residues for antibody binding (outlined in dark grey) were residues whose mutations led to a binding of the test Abs of less than 20%. Additional secondary residues (outlined in light grey) were identified that led to a binding of the test Abs of between 20 and 40% as compared to the wild type CD33.

[2] = molecular target: human CD33 K250A (human, UniProt P20138 18-364)
Method: as §1, §2

[3] = molecular target: human CD33 D246A (human, UniProt P20138 18-364)
Method: as §1, §2

[4] = molecular target: human CD33 A306S (human, UniProt P20138 18-364)
Method: as §1, §2

[5] = molecular target: human CD33 L270A (human, UniProt P20138 18-364)
Method: as §1, §2

[6] = molecular target: human CD33 A265S (human, UniProt P20138 18-364)
Method: as §1, §2

[7] = molecular target: human CD33 H310A (human, UniProt P20138 18-364)
Method: as §1, §2

[8] = molecular target: human CD33 F243A (human, UniProt P20138 18-364)
Method: as §1, §2

[9] = molecular target: human CD33 F280A (human, UniProt P20138 18-364)
Method: as §1, §2

[10] = molecular target: human CD33 C276A (human, UniProt P20138 18-364)
Method: as §1, §2

[11] = molecular target: human CD33 V257A (human, UniProt P20138 18-364)
Method: as §1, §2

[12] = molecular target: human CD33 L277A (human, UniProt P20138 18-364)
Method: as §1, §2

[13] = molecular target: human CD33 C274A (human, UniProt P20138 18-364)
Method: as §1, §2

[14] = molecular target: human CD33 S248A (human, UniProt P20138 18-364)
Method: as §1, §2

[15] = molecular target: human CD33 L273A (human, UniProt P20138 18-364)
Method: as §1, §2

[16] = molecular target: human CD33 T284A (human, UniProt P20138 18-364)
Method: as §1, §2

[17] = molecular target: human CD33 G295A (human, UniProt P20138 18-364)
Method: as §1, §2

[18] = molecular target: human CD33 R291A (human, UniProt P20138 18-364)
Chain of human CD33 R291A (P20138 18-364 R291A limits assumed): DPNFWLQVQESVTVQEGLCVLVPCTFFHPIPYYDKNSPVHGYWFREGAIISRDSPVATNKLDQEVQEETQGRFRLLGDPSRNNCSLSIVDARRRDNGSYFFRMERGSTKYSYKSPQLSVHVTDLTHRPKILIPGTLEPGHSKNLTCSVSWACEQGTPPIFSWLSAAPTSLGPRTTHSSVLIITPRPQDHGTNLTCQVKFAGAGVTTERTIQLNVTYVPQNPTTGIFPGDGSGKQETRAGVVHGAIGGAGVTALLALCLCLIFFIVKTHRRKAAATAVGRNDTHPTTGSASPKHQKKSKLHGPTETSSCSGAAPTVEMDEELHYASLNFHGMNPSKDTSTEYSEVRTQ
Method: as §1, §2

Chain of human CD33 A265S (P20138 18-364 A265S limits assumed): as the sequence (P20138 18-364 R291A limits assumed) above, with A248S, A274R counted along it
Chain of human CD33 L270A (P20138 18-364 L270A limits assumed): as the sequence (P20138 18-364 R291A limits assumed) above, with L253A, A274R counted along it
Chain of human CD33 D246A (P20138 18-364 D246A limits assumed): as the sequence (P20138 18-364 R291A limits assumed) above, with D229A, A274R counted along it
Chain of human CD33 H310A (P20138 18-364 H310A limits assumed): as the sequence (P20138 18-364 R291A limits assumed) above, with A274R, H293A counted along it
Chain of human CD33 L273A (P20138 18-364 L273A limits assumed): as the sequence (P20138 18-364 R291A limits assumed) above, with L256A, A274R counted along it
Chain of human CD33 V267A (P20138 18-364 V267A limits assumed): as the sequence (P20138 18-364 R291A limits assumed) above, with V250A, A274R counted along it
Chain of human CD33 T284A (P20138 18-364 T284A limits assumed): as the sequence (P20138 18-364 R291A limits assumed) above, with T267A, A274R counted along it
Chain of human CD33 A306S (P20138 18-364 A306S limits assumed): as the sequence (P20138 18-364 R291A limits assumed) above, with A274R, A289S counted along it
Chain of human CD33 K250A (P20138 18-364 K250A limits assumed): as the sequence (P20138 18-364 R291A limits assumed) above, with K233A, A274R counted along it
Chain of human CD33 S248A (P20138 18-364 S248A limits assumed): as the sequence (P20138 18-364 R291A limits assumed) above, with S231A, A274R counted along it
Chain of human CD33 F280A (P20138 18-364 F280A limits assumed): as the sequence (P20138 18-364 R291A limits assumed) above, with F263A, A274R counted along it
Chain of human CD33 F243A (P20138 18-364 F243A limits assumed): as the sequence (P20138 18-364 R291A limits assumed) above, with F226A, A274R counted along it
Chain of human CD33 C276A (P20138 18-364 C276A limits assumed): as the sequence (P20138 18-364 R291A limits assumed) above, with C259A, A274R counted along it
Chain of human CD33 L277A (P20138 18-364 L277A limits assumed): as the sequence (P20138 18-364 R291A limits assumed) above, with L260A, A274R counted along it
Chain of human CD33 G295A (P20138 18-364 G295A limits assumed): as the sequence (P20138 18-364 R291A limits assumed) above, with A274R, G278A counted along it
Chain of human CD33 V257A (P20138 18-364 V257A limits assumed): as the sequence (P20138 18-364 R291A limits assumed) above, with V240A, A274R counted along it
Chain of human CD33 C274A (P20138 18-364 C274A limits assumed): as the sequence (P20138 18-364 R291A limits assumed) above, with C257A, A274R counted along it

Binder	Mean % WT Binding [1] [% WT binding]	Mean % WT Binding [2] [% WT binding]	Mean % WT Binding [3] [% WT binding]	Mean % WT Binding [4] [% WT binding]	Mean % WT Binding [5] [% WT binding]	Mean % WT Binding [6] [% WT binding]	Mean % WT Binding [7] [% WT binding]	Mean % WT Binding [8] [% WT binding]	Mean % WT Binding [9] [% WT binding]	Mean % WT Binding [10] [% WT binding]	Mean % WT Binding [11] [% WT binding]	Mean % WT Binding [12] [% WT binding]	Mean % WT Binding [13] [% WT binding]	Mean % WT Binding [14] [% WT binding]	Mean % WT Binding [15] [% WT binding]	Mean % WT Binding [16] [% WT binding]	Mean % WT Binding [17] [% WT binding]	Mean % WT Binding [18] [% WT binding]
B1	106	146	115	111	125	92.4	101	107	99	115	89	81.9	111	133	125	83.2	95.8	97.5
B2	116	106	104	79.3	97.3	126	94.3	69.9	92.3	96.9	110	92.2	103	99.7	115	111	107	102
